The numbers were not newly measured in patent US5494894A, “Agent for the regulation of the appetite or a sleeping agent” (Erlanson-Albertsson; Charlotte, priority 1986, dated 1996), which cites them from elsewhere.

The data set concerns patients. Particulars: administered intravenously; cited from earlier work.

B1: cholocystokinin (peptide, UniProt P06307 21-115, looked up)
Cholecystokinin: QPVPPADPAGSGLQRAEEAPRRQLRVSQRTDGESRAHLGALLARYIQQARKAPSGRMSIVKNLQNLDPSHRISDRDYMGWMDFGRRSAEEYEYPS
modifications: Cholecystokinin
notes: hormone which stimulates the secretion of pancreatic enzymes
In the case of B1, the Feeling of satiety result is given as “earlier feeling of satiety”.
